T1: HNE specific peptide GSGSGGGAAPVAAKGGGSGSC (not fully specified)
T1 chain: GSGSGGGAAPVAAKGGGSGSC


Molecular target: T1, HNE specific peptide …

Protein	cleavage on the multiplex sensor, Cathepsin-G alone at 100 ng/mL	cleavage on the multiplex sensor, ratio 100 uL Cathepsin-G to 0 uL HNE	cleavage on the multiplex sensor, HNE alone at 100 ng/mL	cleavage on the multiplex sensor, ratio 0 uL Cathepsin-G to 100 uL HNE	detection limit of cleavage in spiked saliva (colorimetric)	detection limit of proteolytic cleavage of the peptide-magnetic bead layer (colorimetric, visible bare gold surface)
recombinant Cathepsin-G enzyme (protein) IIGGRESRPHSRPYMAYLQIQSPAGQSRCGGFLVREDFVLTAAHCWGSNINVTLGAHNIQRRENTQQHITARRAIRHPQYNQRTIQNDIMLLQLSRRVRRNRNVNPVALPRAQEGLRPGTLCTVAGWGRVSMRRGTDTLREVQLRVQRDRQCLRIFGSYDPRRQICVGDRRERKAAFKGDSGGPLLCNNVAHGIVSYGKSSGVPPEVFTRVSSFLPWIRTTMRS	there was no cleavage seen in the bottom band	there was no reaction seen on the HNE sensor (Bottom band)	–	–	–	–
recombinant Human Neutrophil Elastase (HNE) (protein) IVGGRRARPHAWPFMVSLQLRGGHFCGATLIAPNFVMSAAHCVANVNVRAVRVVLGAHNLSRREPTRQVFAVQRIFENGYDPVNLLNDIVILQLNGSATINANVQVAQLPAQGRRLGNGVQCLAMGWGLLGRNRGIASVLQELNVTVVTSLCRRSNVCTLVRGRQAGVCFGDSGSPLVCNGLIHGIASFVRGGCASGLYPDAFAPVAQFVNWIDSIIQ	–	–	maximum reaction was seen in the bottom band containing HNE	maximum cleavage was seen on the HNE sensor (Bottom band) where a golden color change was visible	The limits of detection for both spiked proteases were comparable to those obtained with the purified proteases	detection limit to be as low as 1 pg/mL for HNE

— patent US10337047
